Data: patent US20220380426A1

Target: IL-27 receptor (on BL-2 cells) (human) (UniProt Q6UWB1)
Experiment: cell-based or functional assay

Sequence of IL-27 receptor (on BL-2 cells) (human) (Q6UWB1 33-636, chain 1 of 2): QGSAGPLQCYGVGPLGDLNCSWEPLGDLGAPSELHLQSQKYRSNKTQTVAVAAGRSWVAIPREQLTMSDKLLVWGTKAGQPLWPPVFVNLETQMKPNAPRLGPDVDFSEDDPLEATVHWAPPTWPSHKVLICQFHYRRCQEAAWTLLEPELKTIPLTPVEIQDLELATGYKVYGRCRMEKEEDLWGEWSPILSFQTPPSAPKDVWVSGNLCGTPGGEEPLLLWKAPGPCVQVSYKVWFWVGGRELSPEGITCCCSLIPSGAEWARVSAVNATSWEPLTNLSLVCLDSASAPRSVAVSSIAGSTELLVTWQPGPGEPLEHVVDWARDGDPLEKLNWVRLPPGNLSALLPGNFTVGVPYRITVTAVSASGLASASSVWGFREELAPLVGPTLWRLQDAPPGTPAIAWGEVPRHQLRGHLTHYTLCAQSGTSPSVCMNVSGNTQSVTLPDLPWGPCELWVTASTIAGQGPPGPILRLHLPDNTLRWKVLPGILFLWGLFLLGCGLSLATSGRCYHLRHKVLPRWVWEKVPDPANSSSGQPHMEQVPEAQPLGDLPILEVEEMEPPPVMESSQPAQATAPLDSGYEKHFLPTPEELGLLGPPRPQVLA
Sequence of IL-27 receptor (on BL-2 cells) (human) (P40189 23-918, chain 2 of 2, further chain): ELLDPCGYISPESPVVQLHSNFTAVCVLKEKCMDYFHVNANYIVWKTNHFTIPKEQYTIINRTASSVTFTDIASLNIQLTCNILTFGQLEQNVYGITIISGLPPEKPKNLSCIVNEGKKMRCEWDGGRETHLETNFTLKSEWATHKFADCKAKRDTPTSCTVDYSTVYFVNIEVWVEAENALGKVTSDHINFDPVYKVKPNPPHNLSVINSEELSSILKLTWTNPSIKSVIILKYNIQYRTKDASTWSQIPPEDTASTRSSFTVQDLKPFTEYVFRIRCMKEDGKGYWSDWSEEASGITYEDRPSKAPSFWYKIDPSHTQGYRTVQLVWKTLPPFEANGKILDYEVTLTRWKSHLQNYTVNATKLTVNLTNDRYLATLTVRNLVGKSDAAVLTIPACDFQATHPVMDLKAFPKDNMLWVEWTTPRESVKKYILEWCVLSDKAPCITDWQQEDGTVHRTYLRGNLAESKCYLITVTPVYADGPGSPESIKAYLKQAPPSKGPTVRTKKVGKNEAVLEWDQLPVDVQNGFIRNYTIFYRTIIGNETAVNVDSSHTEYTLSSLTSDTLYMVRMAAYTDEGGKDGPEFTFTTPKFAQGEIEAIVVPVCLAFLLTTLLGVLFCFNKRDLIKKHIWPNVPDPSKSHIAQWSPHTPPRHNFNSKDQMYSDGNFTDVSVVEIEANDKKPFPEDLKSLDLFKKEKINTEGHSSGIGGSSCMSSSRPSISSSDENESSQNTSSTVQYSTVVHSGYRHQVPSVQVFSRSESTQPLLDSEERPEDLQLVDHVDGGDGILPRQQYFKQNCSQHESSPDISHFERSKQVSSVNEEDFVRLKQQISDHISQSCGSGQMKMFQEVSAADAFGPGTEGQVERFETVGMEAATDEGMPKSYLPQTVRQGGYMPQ

STAT1 activation (immunoblotting against phosphorylated STAT1), BL-2 cells, 60 minutes, 1000 ng/mL (fold over IL-27alpha^L162C): 8.5
Substance: IL-27alpha^L162C,T238A,S240A (mutein of the alpha-subunit of human Interleukin 27) (from UniProt Q8NEV9 29-243) (ligand)
